The source of these data is PMC7452315, “Alternative Splicing of a Receptor Intracellular Domain Yields Different Ectodomain Conformations, Enabling Isoform-Selective Functional Ligands” (iScience, 2020).

In assay [1] the target is truncated TrkC.T1 receptor. The experiment in a line: co-IP; HEK293 lysates expressing TrkC.T1, TrkC-FL or TrkC-Δ-ICD; immunoprecipitated with a pan-TrkC antibody; reducing and non-reducing SDS-PAGE; blotted with two anti-PDI mAbs or anti-pan-TrkC.
Assay [2] has as its target TrkC-FL D5 (Homo sapiens) (UniProt Q16288). The following applies: cited from earlier work.
The target in the next assay is TrkC ECD (Homo sapiens) (UniProt Q16288). The following applies: cited from earlier work.
The target in assay [3] is T1, full-length TrkC (TrkC-FL) (UniProt Q16288 32-839). The assay can be described thus: cell-based or functional assay.
Assay [4] deals with T1, full-length TrkC (TrkC-FL). The assay can be described thus: cell-based or functional assay. The source holds these as a separate data set.
Assay [5] concerns the target truncated TrkC.T1 receptor. The experiment in a line: flow cytometry on cells; quantitative flow cytometry on live, non-permeabilised cells stably transfected with TrkC-FL or TrkC.T1; ligand at saturating concentration; read-out is fold-increase in mean fluorescence intensity over controls; NT-3-biotin detected with avidin-fluorescein, PTP-sigma with anti-human secondary.

Assay [6] has as its target T1, full-length TrkC (TrkC-FL). The description is as above. Conditions: one partner purified.

T1 sequence (Q16288 32-839): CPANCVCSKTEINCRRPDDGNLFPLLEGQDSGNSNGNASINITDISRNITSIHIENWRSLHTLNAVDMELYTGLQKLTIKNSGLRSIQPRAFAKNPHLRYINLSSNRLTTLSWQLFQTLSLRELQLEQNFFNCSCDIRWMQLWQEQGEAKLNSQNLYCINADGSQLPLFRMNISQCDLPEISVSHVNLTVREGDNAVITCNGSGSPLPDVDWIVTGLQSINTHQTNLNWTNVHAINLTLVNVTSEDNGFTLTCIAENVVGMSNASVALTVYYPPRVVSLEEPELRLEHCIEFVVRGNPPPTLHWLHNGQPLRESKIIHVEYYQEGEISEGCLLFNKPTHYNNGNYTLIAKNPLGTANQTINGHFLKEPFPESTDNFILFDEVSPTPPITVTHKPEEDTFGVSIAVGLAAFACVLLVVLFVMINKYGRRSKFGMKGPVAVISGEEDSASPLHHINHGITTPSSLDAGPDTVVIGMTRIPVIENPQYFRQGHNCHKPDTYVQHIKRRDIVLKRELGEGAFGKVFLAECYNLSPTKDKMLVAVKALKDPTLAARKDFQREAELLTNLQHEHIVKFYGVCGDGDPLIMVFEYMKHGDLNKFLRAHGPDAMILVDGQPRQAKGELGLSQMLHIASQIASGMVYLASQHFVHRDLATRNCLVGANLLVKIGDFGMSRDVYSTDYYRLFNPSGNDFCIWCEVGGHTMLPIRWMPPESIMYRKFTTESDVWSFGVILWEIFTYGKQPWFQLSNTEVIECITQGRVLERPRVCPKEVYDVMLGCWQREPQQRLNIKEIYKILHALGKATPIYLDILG
Sequence of truncated TrkC.T1 receptor (Q16288 32-839): as above
Sequence of TrkC ECD (Homo sapiens) (Q16288 32-429): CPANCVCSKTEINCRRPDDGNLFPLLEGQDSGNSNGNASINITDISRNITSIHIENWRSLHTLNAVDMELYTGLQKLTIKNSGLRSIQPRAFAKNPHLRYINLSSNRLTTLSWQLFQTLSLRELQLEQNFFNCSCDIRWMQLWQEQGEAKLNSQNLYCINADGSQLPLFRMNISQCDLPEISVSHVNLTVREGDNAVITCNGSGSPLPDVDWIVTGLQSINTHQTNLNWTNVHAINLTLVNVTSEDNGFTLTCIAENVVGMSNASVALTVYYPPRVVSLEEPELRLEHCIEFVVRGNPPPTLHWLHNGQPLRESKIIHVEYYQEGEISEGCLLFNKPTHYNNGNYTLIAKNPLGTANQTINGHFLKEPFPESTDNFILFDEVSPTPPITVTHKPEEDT
Sequence of TrkC-FL D5 (Homo sapiens) (Q16288 300-413): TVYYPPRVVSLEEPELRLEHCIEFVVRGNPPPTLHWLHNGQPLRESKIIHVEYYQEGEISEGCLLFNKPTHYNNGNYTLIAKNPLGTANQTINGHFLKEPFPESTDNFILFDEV

Consider “Protein Disulfide Isomerase (PDI) (from UniProt P07237 18-508) (enzyme)”, for which the fold associated PDI (PDI/TrkC ratio) against TrkC-FL and TrkC-Δ-ICD in assay [1] was in the range of 4 to 6 fold.
On to NT-3 (from UniProt P20783), for which the Kd in assay [2] was 0.05 nM.
As to PTP-sigma (from UniProt Q13332), in the assay with TrkC ECD (Homo sapiens), the Kd was 9.3 nM.

B1: ectodomain of PTP-sigma (domain or fragment, UniProt Q13332 30-1282, looked up)
chain: EEPPRFIKEPKDQIGVSGGVASFVCQATGDPKPRVTWNKKGKKVNSQRFETIEFDESAGAVLRIQPLRTPRDENVYECVAQNSVGEITVHAKLTVLREDQLPSGFPNIDMGPQLKVVERTRTATMLCAASGNPDPEITWFKDFLPVDPSASNGRIKQLRSETFESTPIRGALQIESSEETDQGKYECVATNSAGVRYSSPANLYVRELREVRRVAPRFSILPMSHEIMPGGNVNITCVAVGSPMPYVKWMQGAEDLTPEDDMPVGRNVLELTDVKDSANYTCVAMSSLGVIEAVAQITVKSLPKAPGTPMVTENTATSITITWDSGNPDPVSYYVIEYKSKSQDGPYQIKEDITTTRYSIGGLSPNSEYEIWVSAVNSIGQGPPSESVVTRTGEQAPASAPRNVQARMLSATTMIVQWEEPVEPNGLIRGYRVYYTMEPEHPVGNWQKHNVDDSLLTTVGSLLEDETYTVRVLAFTSVGDGPLSDPIQVKTQQGVPGQPMNLRAEARSETSITLSWSPPRQESIIKYELLFREGDHGREVGRTFDPTTSYVVEDLKPNTEYAFRLAARSPQGLGAFTPVVRQRTLQSKPSAPPQDVKCVSVRSTAILVSWRPPPPETHNGALVGYSVRYRPLGSEDPEPKEVNGIPPTTTQILLEALEKWTQYRITTVAHTEVGPGPESSPVVVRTDEDVPSAPPRKVEAEALNATAIRVLWRSPAPGRQHGQIRGYQVHYVRMEGAEARGPPRIKDVMLADAQWETDDTAEYEMVITNLQPETAYSITVAAYTMKGDGARSKPKVVVTKGAVLGRPTLSVQQTPEGSLLARWEPPAGTAEDQVLGYRLQFGREDSTPLATLEFPPSEDRYTASGVHKGATYVFRLAARSRGGLGEEAAEVLSIPEDTPRGHPQILEAAGNASAGTVLLRWLPPVPAERNGAIVKYTVAVREAGALGPARETELPAAAEPGAENALTLQGLKPDTAYDLQVRAHTRRGPGPFSPPVRYRTFLRDQVSPKNFKVKMIMKTSVLLSWEFPDNYNSPTPYKIQYNGLTLDVDGRTTKKLITHLKPHTFYNFVLTNRGSSLGGLQQTVTAWTAFNLLNGKPSVAPKPDADGFIMVYLPDGQSPVPVQSYFIVMVPLRKSRGGQFLTPLGSPEDMDLEELIQDISRLQRRSLRHSRQLEVPRPYIAARFSVLPPTFHPGDQKQYGGFDNRGLEPGHRYVLFVLAVLQKSEPTFAASPFSDPFQLDNPDPQPIVDGEEG
notes: receptor-type tyrosine-protein phosphatase sigma, ectodomain; Probably a human Fc fusion, since it was detected with an anti-human secondary; also called PTP-sigma ectodomain; not shown: Fc (human)
On to B1, for which the “EC50 of bioactivity from dose-response curves (cell survival via TrkC-FL)” value in assay [3] was determined as 8 nM. The “cell survival (MTT) of TrkC-FL-expressing cells in serum-free media, efficacy relative to 2 nM NT-3 (100%)” value in assay [4] is 105 % of 2 nM NT-3. For the same molecule, the values for the fold-increase in ligand binding over controls (mean fluorescence intensity) in assay [5] and in assay [6] were 3.7 fold and 5 fold, respectively.

B2: NT-3 (ligand, UniProt P20783 139-257, looked up)
chain: YAEHKSHRGEYSVCDSESLWVTDKSSAIDIRGHQVTVLGEIKTGNSPVKQYFYETRCKEARPVKNGCRGIDDKHWNSQCKTSQTYVRALTSENNKLVGWRWIRIDTSCVCALSRKIGRT
modifications: biotin (NT-3-biotin in the flow cytometry binding assay)
notes: neurotrophin-3, soluble growth factor; also called NT-3-biotin
On to B2, for which, in assay [3], the “EC50 of bioactivity from dose-response curves (cell survival via TrkC-FL)” value is 0.2 nM. Also, the fold-increase in ligand binding over controls (mean fluorescence intensity) came out at 7 fold in assay [5] and 9 fold in assay [6].
